Measured values reported in patent publication US20210261685A1 (Alector, published 2021).
Numbering of substitutions follows the chain as printed.

T1: Recombinant human MerTK human Fc Chimera protein (R&D systems, Cat #391-MR-100) (human, UniProt Q12866 26-499, limits assumed)
T1 construct: Bought; also called recombinant human MerTK protein; MerTK-Fc
T1 sequence: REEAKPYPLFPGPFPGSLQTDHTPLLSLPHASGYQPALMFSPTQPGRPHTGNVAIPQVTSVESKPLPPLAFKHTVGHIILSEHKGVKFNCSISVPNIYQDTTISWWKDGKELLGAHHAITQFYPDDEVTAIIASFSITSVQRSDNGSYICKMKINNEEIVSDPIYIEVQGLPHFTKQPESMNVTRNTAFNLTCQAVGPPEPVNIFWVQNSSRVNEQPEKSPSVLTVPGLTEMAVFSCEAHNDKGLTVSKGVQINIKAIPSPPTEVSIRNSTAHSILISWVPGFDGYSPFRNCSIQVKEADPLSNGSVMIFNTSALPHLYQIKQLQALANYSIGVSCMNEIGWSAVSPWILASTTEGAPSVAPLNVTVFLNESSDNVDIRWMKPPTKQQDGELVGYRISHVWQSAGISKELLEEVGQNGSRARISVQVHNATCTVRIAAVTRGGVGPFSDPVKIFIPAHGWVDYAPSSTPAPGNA

T2: human MerTK endogenously expressed on cells (SK-MEL-5 cells; human macrophages) (human, UniProt Q12866 21-999)
T2 construct: also called MerTK on SK-MEL-5
T2 sequence: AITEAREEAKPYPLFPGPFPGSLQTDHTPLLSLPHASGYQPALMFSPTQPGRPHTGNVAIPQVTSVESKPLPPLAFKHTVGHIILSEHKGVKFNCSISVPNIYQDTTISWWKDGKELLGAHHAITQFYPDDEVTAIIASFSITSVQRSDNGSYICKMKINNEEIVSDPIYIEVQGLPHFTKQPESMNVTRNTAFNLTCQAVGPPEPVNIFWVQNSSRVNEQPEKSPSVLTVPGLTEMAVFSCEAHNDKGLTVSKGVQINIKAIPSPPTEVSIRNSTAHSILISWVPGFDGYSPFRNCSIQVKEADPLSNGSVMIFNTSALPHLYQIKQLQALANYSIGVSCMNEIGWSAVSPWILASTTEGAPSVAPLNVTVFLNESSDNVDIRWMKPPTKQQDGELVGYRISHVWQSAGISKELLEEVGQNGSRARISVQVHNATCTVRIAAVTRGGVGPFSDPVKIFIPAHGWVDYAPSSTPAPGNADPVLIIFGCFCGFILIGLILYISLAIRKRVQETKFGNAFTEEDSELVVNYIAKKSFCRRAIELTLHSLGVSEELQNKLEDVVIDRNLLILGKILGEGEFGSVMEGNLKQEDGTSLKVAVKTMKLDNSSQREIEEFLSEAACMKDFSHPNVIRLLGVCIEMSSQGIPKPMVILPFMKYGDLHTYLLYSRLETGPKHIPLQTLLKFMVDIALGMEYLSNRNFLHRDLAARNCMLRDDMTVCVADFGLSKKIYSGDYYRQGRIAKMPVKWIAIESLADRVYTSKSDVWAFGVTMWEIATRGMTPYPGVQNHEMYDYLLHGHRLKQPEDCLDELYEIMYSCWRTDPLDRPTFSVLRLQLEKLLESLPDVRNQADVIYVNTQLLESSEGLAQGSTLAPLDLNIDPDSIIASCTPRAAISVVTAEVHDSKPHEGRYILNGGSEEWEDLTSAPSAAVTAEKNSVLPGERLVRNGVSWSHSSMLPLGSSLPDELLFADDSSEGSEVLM

B1: MTK-27 (antibody, human IgG1, V domains shown)
VH: EVQLQQSGTELVRPGASVKLSCTASGFNIKDDYMHWVQQRPEQGLEWIGWIDPENGNTEYASKFQGKATITADASSNTAYLQLSSLTSEDTAVYYCSTLFSNYFDYWGQGTTLTVSS
VL: DIVMTQSQKFMSTSVGDRVSITCKASQNVRTSVAWYQQKPGQSPKALIYLASNRHTGVPDRFTGSGSGTDFTLTISNVRSEDLADYFCLQHWNYPYTFGGGTKLEIK
B2: MTK-13 (antibody, human IgG1, V domains shown)
VH: DVQLQESGPGLVKPSQSLSLTCSVTGYSITSGYYWNWIRQFPGNKLEWMGNIDYDGSNKYNPSLKNRISITRDTSKNHFFLKLNSVTPEDTATYFCARDGGNYRSFAYWGQGTLVTVSA
VL: QIVLTQSPPIMSASPGEKVTITCSASSSVSYMYWFQQKPGTSPKLWIYSTFNLASGVPARFSGSGSGTSYSLTISRMEAEDVATYYCQQRSSYPFTFGSGTKLEIK
B3: MTK-26 (antibody, human IgG1, V domains shown)
VH: AVQFQESGPGLVKLSQSLSLTCSVTGYSITSGYYWDWIRQFPGNKLEWMGYISYDGSNNYNPSLKNRISITRDTSKNQFFLKLNSVTTEDTATYYCAREGGYYRSMDYWGQGTSVTVSS
VL: B2 VL with P9A, T22A, Y31F, Y33H, K44R, F51S, V82A
B4: MTK-31 (antibody, human IgG1, V domains shown)
VH: QIQLVQSGPELKKSGETVKISCKASGYTFTSYGMSWVKQAPGKGLKWMGWINTYSGVPTYADDFKGRFAFSLETSASTAYLQINNLKNEDTATYFCASLSYDGSLYHAMDYWGQGTSVTVSS
VL: DVSMTQTPLSLPVSLGDQASISSRSSQTIVHSNGNTYLEWYLQKPGQSPKLLIYKVSNRFSGVPDRFSGSGSGTDFTLKISRVEAEDLGVYYCFQGSHVPWTFGGGTKLEIK
B5: MTK-21 (antibody, human IgG1, V domains shown)
VH: QIQLVQSGPELKKPGETVKISCKASGYTFTNFGMTWVRQAPGMDLKWMGWINTYTGEPKYADDFKGRFALSLETSASTAYLQITNFKNEDTATYFCARGGGRLGLRPLDYWGQGTTLTVSS
VL: DIQMTQTTSSLSASLGDRVTISCRASQDINNYLNWYQQKPDGTVKLLIYYTSSLHSGVPSRFSGSGSGTDYSLTITNLEQEDIATYFCQQGNTLPWTFGGGTRLEIK
B6: MTK-24 (antibody, human IgG1, V domains shown)
VH: QVQLQQPGAELVKPGASVKLSCKASGYTFTSYWMHWVKQRPGQGLEWIGMIHPNINTNYNEKFKSKATLTVDISSSTAYMQLSSLTSEDSAVYYCAKRSPYSNYDWYFDVWGTGTTVTVSS
VL: DIQMTQSPASLSVSVGETVTITCRASENIYSNLAWYQQKQGKSPQLLVYAATNLADGVPSRFSGSGSGTQYSLKINSLQSEDFGSYYCQHFWGTPLTFGAGTKLELK
B7: MTK-10 (antibody, human IgG1, V domains shown)
VH: QVTLKESGPGILQPSQTLSLTCSFSGFSLTTSGMGVGWIRQPSGKGLEWLAHIWSDDDKRSNPALKSRLTISQDSSTNQVFLKIASVDTADSATYYCSHLTPVREFAYWGPGTLVTVSE
VL: DIQMTQTTSSLSASLGDRVTISCSASQGISNYLNWFQQKPDGTVKLLIYYTSRLHSGVPSRFSGSGSGTDFSLTISNLEPEDIATYYCQQYTKLPYTFGGGTKLEIK
B8: MTK-28 (antibody, human IgG1, V domains shown)
VH: QIQLVQSGPELKKPGETVKISCKASGYTFTTYGMSWVKQAPGKGLKWMGWINTYSGVPTYADDFKGRFAFSLETSASTAYLQINTLKNEDTTTYFCARFLRYYYFDYWGQGTTLTVSS
VL: QIVLSQSPVILSASPGEKVTMTCRASSSVTYMHWYQQQPGSSPKPWIYATSNLASGVPARFSGSGSGTSYSLTISRVETEDAATYYCHQWSGNPTFGGGTKLEIN
B9: MTK-04 (antibody, human IgG1, V domains shown)
VH: QIQLVQSGPELKKPGETVKISCKASGYTFTNYGMNWVKQAPGKGLKCMGWINTYTGEPTYADDFKGRFAFSLETSASTAYLQINNLKNEDMATYFCAKYDNYAWFAYWGQGTLVTVSA
VL: QIVLSQSPAFLSASPGEKVTMTCRASSSVSYMHWYLQKPGSSPKPWIYATSNLASGVPVRFSGSGSGTSYSLTISRVEAEDAATYYCQQWSSNPRTFGGGTKLEIR
B10: MTK-08 (antibody, human IgG1, V domains shown)
VH: QIQLVQSGPELKKPGETVKISCKASGYTFTNYGMNWVKQAPGKGLKWMGWINTYTGEPTYADDFKGRFAFSLETSASTAYLQINNLKNEDTATYFCAREVRYWYFDVWGAGTTVTVSS
VL: B9 VL with F10I, S26T, Y35F, L36Q, V59A, T84A, Q89H, S92G, R106K
B11: MTK-06 (antibody, human IgG1, V domains shown)
VH: B10 VH with Y54N, D62E, D63E, E99Y, V100Y, R101N
VL: B9 VL with F10I, L36Q, V59A, N93K, R95P, R106K
B12: MTK-32 (antibody, human IgG1, V domains shown)
VH: QIQLVQSGPELKKPGETVKISCKASGYTFTSYGMSWVHQAPGKGLKWLGWINTYSGVPTYADDFRGRFAFSLDTSVSTASLEINNLQNEDTATYFCAREDNWAWFAYWGQGTLVTVST
VL: B9 VL with F10I, S26T, S30G, L36Q, Q37R, V59A, R106K
B13: MTK-14 (antibody, human IgG1, V domains shown)
VH: B9 VH with G44D, K46Q, C47W, K65T, M91T, Y99G, D100G, N101H
VL: B9 VL with F10I, A25S, L36Q, V59G, S91G, R106K
B14: MTK-02 (antibody, human IgG1, V domains shown)
VH: B10 VH with K13Q, N31D, M34V, T55S, D62G, T74S, Y80F, T91M, E99R, T113S
VL: QIVLSQSPAILSASPGERVTMTCRANSSVSYMHWYQQKPGSSPKPWIYATSNLASGVPARFSASGSGTSYSLTVSRVEAEDAATYYCQQWGSNPFTFGSGTKLEIK

target: T1, Recombinant human MerTK human Fc …; experiment: competition ELISA, His-Gas6 on captured MerTK-Fc
Experimental: Rabbit anti-human IgG polyclonal antibody (Jackson ImmunoResearch, Cat #309-005-008) was captured to a high-protein binding plate at 2 μg/ml 4° C. overnight. After washing with 0.05% Tween20 in PBS three times, 5% BSA in PBS was added for 1 hour. Recombinant human MerTK human Fc Chimera protein (R&D systems, Cat #391-MR-100) was added at 2 μg/ml for 1 hour and the plates were then washed. Anti-MerTK antibodies were titrated to final concentration range of between 66.6 nM to 4 pM and then 40 μl of serially diluted antibody and 40 μl of His tag-conjugated recombinant Gas6 protein (R&D systems, Cat #885-GSB-050) at 3 μg/ml or His tag-conjugated recombinant ProS protein (R&D systems, Cat #9489-PS-100) at 20 μg/ml. After a further incubation for 1 hour, plates were washed and incubated for 1 hour with HRP-conjugated anti-6×His tag antibody (Abcam, Cat #ab1187). Plates were then washed and an HRP substrate (TMB) was used to develop the plates. After sufficient color change was observed, the reaction was stopped by adding 50 μl 2N H₂SO₄ and the OD was measured using a spectrophotometer (BioTek).
From these experiments, IC50 values [nM] were determined using OD450 values obtained from the dose-response curves analyzed with Prism software. Table 14 and Table 15 show IC50 values determined for anti-MerTK antibody blocking of Gas6 ligand binding and ProS ligand binding to MerTK. […] Dashes indicate lack of significant blocking; “n.a.” indicates data not available.

IC50	Binder
1.42 nM	B1
18.9 nM	B2
2.93 nM	B3
1.29 nM	B4
5.98 nM	B5
0.74 nM	B6
32.4 nM	B7

target: T2, human MerTK endogenously expressed on …; experiment: flow cytometry on SK-MEL-5 cells, Prism fit
Experimental: To determine whether recombinant anti-human MerTK antibodies of the present disclosure bind to human MerTK endogenously expressed on SK-MEL-5 cells and to CHO cells overexpressing mouse MerTK (CHO-muMerTK OE cells), the following experiments were performed. SK-MEL-5 cells and CHO-muMerTK OE cells were plated at 40,000 cells/well. Anti-MerTK antibodies were titrated to a final concentration range of between 66.6 nM to 4 pM and then added to the cells. After 30 min on ice, cells were washed and then stained with APC-conjugated mouse anti-human Kappa antibody (Southern Biotech Cat #9230-11, Birmingham, Ala.) and a viability die (Life Technologies) in the presence of Fc block solution on ice for 30 minutes, and then washed twice with cold FACS buffer (2% FBS in PBS). Cells were fixed with 4% paraformaldehyde in PBS. Stained cells were acquired on a BD FACS Canto II cytometer and the mean fluorescence intensity (MFI) was calculated with FlowJo software and K value was calculated with Prism software. […] A lower Kd value reflects higher binding of antibody to cells.

Kd	Binder
2.55 nM	B1
0.68 nM	B2
1.38 nM	B3
0.52 nM	B8
0.037 nM	B9
0.079 nM	B10
0.005 nM	B11
0.4 nM	B12
0.021 nM	B13
23.4 nM	B5
0.024 nM	B14
0.59 nM	B6
0.076 nM	B7
